These are literature values, as cited in PMC5156371.

“And” between values parts separate entries of the source, which are not always exact repeats. Identical values can stand only once. Like-named read-outs stand apart in the source and are kept apart here.

Data set [1] concerns the target MyD88 TIR (Homo sapiens) (UniProt Q99836).
In data set [2] the target is MAL TIR (Homo sapiens) (UniProt P58753).
Data set [3] concerns the target MyD88 TIR (Homo sapiens) (UniProt Q99836). This is another data set of the same source.
Data set [4] addresses MAL TIR (Homo sapiens) (UniProt P58753). This is another data set of the same source.

For A46 87-229 (from UniProt P26672), the Kd is 890 nM and 1240 nM in data set [1]; 2300 nM and 2240 nM in data set [2].
With A46 1-229 (from UniProt P26672), the Kd in data set [3] is 460 nM and 520 nM; in data set [4], 1440 nM and 1560 nM.
